In publication doi:10.1101/2023.12.21.572878 one finds stoichiometry N (kinesin dimers per streptavidin tetramer) and stoichiometry N data, which are given here for one substance.

Where “and” joins values, the source holds several entries; their conditions need not be identical. Equal values may be shown once.

In general, stoichiometry N refers to a count of units in the complex or per binding partner.

One experiment concerns the target Streptavidin (UniProt P22629). The experiment is described as follows: mass photometry.
Experiment [1] concerns the target Dimeric kinesin K401-BIO-H6 (Drosophila | E. coli) (UniProt P17210). The experiment is described as follows: mass photometry.

Chain of Streptavidin (P22629 25-183): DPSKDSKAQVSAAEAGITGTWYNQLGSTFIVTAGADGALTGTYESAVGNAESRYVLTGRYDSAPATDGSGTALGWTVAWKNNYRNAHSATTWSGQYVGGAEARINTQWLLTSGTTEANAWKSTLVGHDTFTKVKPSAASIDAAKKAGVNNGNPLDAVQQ

With “Dimeric kinesin K401-BIO-H6 (from UniProt P17210 1-401)”, the stoichiometry N (kinesin dimers per streptavidin tetramer) with Streptavidin is 1 and 2 and 3. The substance further registered a stoichiometry N in experiment [1] of 2.
